# From the DeepSol protein solubility set
# Experiment: soluble on expression in E. coli; label from the status in PepcDB or PDB records
row,Sequence,soluble on expression in E. coli
1,MGHHHHHHSHMVSPSKAVIVPGKIGGDETTHGWYGWVKKELEKIPGFQCLAKNMPDPITARESIWLPFMETELHCDEKTIIIGHSSGAIAAMRYAETHRVYALILVSAYTSEFGDENERASGYFSRPWQWEKIKANCPHIVQFGSTDDPFLPWKEQQEVADSWTPNCTNSLTVVTFRTQSSMN,not soluble
2,MGHHHHHHSHMYFVGCGYNAFPVGSEYADFPHMDDKQKDREIRKFRYIIHAEQNALTFRCQEIKPEERSMIFVTKCPCDECVPLIKGAGIKQIYAGDVDVGKKKADISYMRFGELEGVSKFTWQLNPSGAYGLEQNEPERRERDLSHRRKSSTRTRSCASESTKKACLHCRGTSRTFHCTSKIQPCSFRK,not soluble
3,MGHHHHHHSHRRERACPERALDLENIMRKFSGSCRCCAKQIKFYRMRHHYKSCKKYQDEYGVSSIIPNFQISQDSVGNSNRSETSTSDNTETYQENTSSSGHPTFKCPLCQESNFTRQRLLDHCNSNHLFQIVPVTCPICVSLPWGDPSQITRNFVSHLNQRHQFDYGEFVNLQLDEETQYQTAVEESFQVNI,not soluble
4,MGHHHHHHSHSGGRNKIRKILDKTRFSILPPKLFSDGGLSQSQDDSIVGTRHCRHSLAIMPIPGTLSSSSPDLLQPTTSMLDFSNPSDIPDQVIRVFKVDQQSCYIIISKDTTAKEVVFHAVHEFGLTGASDTYSLCEVSVTPEGVIKQRRLPDQFSKLADRIQLNGRYYLKNNMETETLC,not soluble
5,MGHHHHHHSHSIKPSTNLVFAKVLEKTRHPNANHLNLVKVKANQKVYEIVCGANNFSVHNWVVLAKLNAELANGLKITPRELRGYVSNGMLCAYSEINPQATSFLTSTDLDGILVLDDNYDHYKTPNQIFNLDDVILDLSIPSNRNDLNGYFWIAKELCAYFDFEYVVDATINHRPHKEIIDVRI,not soluble
6,MGIHKPKFYAVRAGRDKGVFSSWEECRKAIYGFSGAVYRSFPTLEEAQAWFKGETLSDPLKAEDDSLRDDRTEYDVYTDGSYVNGQYAWAYAFVKDGKVHYEDADVGKNPAAATMRNVAGEIAAALYAVKKASQLGVKIRILHDYAGIAFWATGEWKAKNEFTQAYAKLMNQYRGIYSFEKVKAHSGNEFNDYVDMKAKSALGIRDLEHHHHHH,not soluble
7,MGILDKVKNLLSQNADKVETVINKAGEFVDEQTQGNYSDAIHKLHDAASNVVGMSDQQS,soluble
8,MGKATWRQVWERARALAGAAALAVLAGCAAPGAQDPGQARNTAREAYIYAYPMLYHYRSMYEQAIDTASPAYLGGFGVFQHRAEPYTPQSVDVATPNVDTLYSRAWLDLRAEPWVLSLPAVPKSRYNAFQLVDMYTYNLAYLGTRATGFGSGHYLIAGPGWTGPVPKGITQVVRADTDFVAVLGRTALNGPADIKAVHALQARYGLRPLSAYTGTAAPAGAPPVDWLPWNEQRASSIGFIAYLNQLLAHTQPQPESEADMMARFARIGVAPGRDFEPARLDAATRRAMDAGIVDAQQAIEQGARHAAAPATPASLYGSREQLGGDYLKRAVAAAVGIYGNTADEAIYLTIGEDAQGRPLDGARAYELRFAPGRQPPVRFFWSISVYALPARGLAENPIDRYAIGSRTKGIKRGRDGSLTVYLQHDAPARAHAPNWLPTPAGPFVVVARFYGPQPALRDGAWVMPALVPARLEHHHHHH,not soluble
9,MGKMRTPQEVPARLDALAEAARKLKFDVREPVDAGAGAIGAVHSLDYLRFLREAHARWKQLPDDWGDEVVSNVFVREPNALRGVLAQAARYLADGSCPVGPHTWQSAYWAAQCAISGAQTLLDGERHAYALCRPPGHHARRDAAGGFCYLNNAAIAAQMLTQRYKRVAILDTDMHHGQGIQEIFYERSDVLYVSIHGDPENFYPVVAGFENERGAGEGYGYNVNLPMPHGSPEPVFFDRLQQAQRAIELFQPDALVLSLGFDVFEKDPQAMVAVSANGFERLGQAIGAFKLPTLIVQEGGYYIEGLEDNAERFFAGLAKALEHHHHHH,not soluble
10,MGKNVVVLGTQWGDEGKGKVVDLLTERAKYVVRYQGGHNAGHTLVINGEKTVLHLIPSGILRENVISIIGNGVVLAPDALMKEMTELEARGVPVRERLLLSEACPLILPYHVALDNAREKARGAKAIGTTGRGIGPAYEDKVARRGLRVSDLFNKETFAIKLKEIVEYHNFQLVHYYKEAAVDYQKVLDDVLAIADILTAMVVDVSELLDNARKQGELIMFEGAQGTLLDIDHGTYPYVTSSNTTAGGVATGSGLGPRYVDYVLGIVKAYSTRVGAGPFPTELNDETGEFLRKQGNEYGATTGRSRRTGWLDIVAVRRAVQINSLSGFCMTKLDVLDGLKEVKLCVGYRMPDGREVDTTPLAAEGWEGIEPIYETMPGWSETTFGVKEHSKLPQAALNYIQRVEELTGVPIDIISTGPDRDETMILRDPFDA,soluble
11,MGKPTGFMEIKREKPAERDPLTRLKDWKEYSAPFSEEASKRQGARCMDCGTPFCQIGADINGFTSGCPIYNLIPEWNDLVYRGRWKEALERLLKTNNFPEFTGRVCPAPCEGSCTLAISDPAVSIKNIERTIIDKGFENGWIQPRIPKKRTGKKVAIVGSGPAGLASADQLNQAGHSVTVFERADRAGGLLTYGIPNMKLEKGIVERRIKLLTQEGIDFVTNTEIGVDITADELKEQFDAVILCTGAQKQRDLLIEGRDSKGVHYAMDYLTLATKSYLDSNFKDKQFIDAKGKDVIVIGGGDTGADCVATALRQKAKSVHQFGKHPKLPPARTNDNMWPEQPHVFTLEYAYEEREAKFGRDPREYSIQTTKMVADKNGKLKELHTIQMEKVKNEHGKYEFRELPGTEKVWPAQLVFIAIGFEGTEQPLLKQFGVNSVNNKISAAYGDYQTNIDGVFAAGDARRGQSLIVWAINEGREVAREVDRYLMGSSVLPLEHHHHHH,soluble
12,MGKVNVAKLRYMSRDDFRVLTAVEMGMKNHEIVPGSLIASIASLKHGGCNKVLRELVKHKLIAWERTKTVQGYRLTNAGYDYLALKTLSSRQVVESVGNQMGVGKESDIYIVANEEGQQFALKLHRLGRTSFRNLKNKRDYHKYRHNVSWLYLSRLSAMKEFAYMKALYERKFPVPKPIDYNRHAVVMELINGYPLCQIHHVEDPASVYDEAMELIVKLANHGLIHGDFNEFNLILDESDHITMIDFPQMVSTSHPNAEWYFDRDVKCIKDFFMKRFSYESELFPTFKDIRREDTLDVEVSASGYTKEMQADDELLHPLGPDDKNIETKEGSEFSFSDGEVAEKAEVYGSENESERNCLEESEGCYCRSSGDPEQIKEDSLSEESADARSFEMTEFNQALEEIKGQVVENNSVTEFSEEKNRTENYNRQDGQRVQGGVPAGSDEYEDECPHLIALSSLNREFRPFRDEENVGAMNQYRTRTLSITSSGSAVSCSTIPPELVKQKVKRQLTKQQKSAVRRRLQKGEANIFTKQRRENMQNIKSSLEAASFWGE,not soluble
13,MGLFDRLRAGLAKTRERLLKAIPWGGDPEEVLEELEMALLAADVGVAATEELLKEVRASGRRDLKEVVKEKLVQMLEPDERRATLRKLGFRPQKLRPVEPQGHVVMVVGVNGVGKTTTIAKLGRLYQGLGKKVLFCAGDTFRAAGGAQLAEWGKRLGIPVIQGPEGADPAALAFDAAKARRARGLDLLFVDTAGRLHTKQGLMEELKKVKRAIAKADPGEPGEVWLVLDAVTGQNGLEQAKRFHEAVGLTGVIVTKLDGTAKGGVLVPIVRTLKVPIRFIGVGEGPDDLQPFDAEAFVEALLEA,soluble
14,MGLFLEDLAVGDRFDSARHRVEAAAIKAFAGEFDPQPFHLDEEAARHSLFGGLAASGWHTAAITMRLLVTSGLPLAQGIIGAGTELSWPNPTRPGDELHVETTVLAITPSKSRPDRAIVTCQSDTLNQRGEVVQRSTAKVVVFRRPLEHHHHHH,soluble
15,MGLHPTLGEHGERELLALQKVDYPKGDVKAQAKHTARTLLECYNCHSLGEYNTLLNLYNITVYEVRGSVDGKEYHGIMYGALDDNGQQVGTPFKSSKFGKVFGYEALQKKFAASAEKVKKDNLPERLEHHHHHH,soluble
16,MGLIKAATSSVGGGLADQWLEVIEPDNMGDTTVMTKGVFVRKDDKRGSNRKGTDDVLTDGSVVHVYPNMMMLLVDGGKIIDYTAEEGYYTVKNDSAPSMFNGSLKDAIAETFSRFKFGGVTPQKQQVFYINLQEIKGIKFGTPAPLNYFDNFYNAELFLRAHGNYSIKITDPLLFYTNAIPKNQTQVDINDINEQYLAEFITALQAAINQMSADGQRISYVPSKSVELSKYMQTALDEDWRTNRGMEIVSVAVASISYTDDSTKLINMRNEGAMLSDPGVREGYVQGSLARGMEAAGKNEGGAMSGFMGVGMGMNANGNYFAQASQTNQQQMQEKQNQQNAQGATDTWTCPQCGTENTGKFCSNCGTPKPTNEKPKLEMKCSECSEIVDLSNGIPKFCPHCGKPFQGVPL,not soluble
17,MGLIKAATSSVGGGLADQWLEVIEPDNMGDTTVMTKGVFVRKDDKRGSNRKGTDDVLTDGSVVHVYPNMMMLLVDGGKIIDYTAEEGYYTVKNDSAPSMFNGSLKDAIAETFSRFKFGGVTPQKQQVFYINLQEIKGIKFGTPAPLNYFDNFYNAELFLRAHGNYSIKITDPLLFYTNAIPKNQTQVDINDINEQYLAEFITALQAAINQMSADGQRISYVPSKSVELSKYMQTALDEDWRTNRGMEIVSVAVASISYTDDSTKLINMRNEGAMLSDPGVREGYVQGSLARGMEAAGKNEGGAMSGFMGVGMGMNANGNYFAQASQTNQQQMQEKQNQQNAQGATDTWTCPQCGTENTGKFCSNCGTPKPTNEKPKLEMKCSECSEIVDLSNGIPKFCPHCGKPFQGVPLLEHHHHHH,soluble
18,MGLISKNRGPCQVCHNTETTRRHFGIISCTACAAFFRRSIGMQYLCTAENRCTISFDRKFFCRACRYASCLKAGMKLELIRKQKNNIYLRFPDAASNQQNLVRDSMSPATSEGGQSSSSKTDEESDDPEYSKILKMYHDDLLQYYVKEVKKMMAEKRRGCEKNTLQIKTISDLMLITARQSGPSMEECLRCPGVDMLEKEDVEALLRYYRFSNIWVDSVLIDSVLESAKGDSHTDTDDRLSRFIQEVKSTLGSSLAHLNLNIYEFAAFKALCIWKLRFYETSFAQKIIAHEHYEGVTGALRNYYENCTELADMEIAIRIGDITLQIVTVQNTYHEMVRLYYQIGMPL,not soluble
19,MGLPAHHIDAFLDRLRTAHYSEVSLRKKRRVLCAFSGWMKHRNIDLIDLDESVTARFMKRMIDASRDRVQRARPTLRQFLAYLRAEAIVCSPTLGSQSAIAHTYRRYLDYLRQDRGLAKNSLLVYGPFIRDFLDSHSAGDGSLLPDAFDAVTIRNHLLARSKGRSAEYTRLMAVALRSFCHFLFLRGDTARDLAGSVPSVRKWRQSTVPTFLTPEQQEALIASADRSTPTGLRDYAILLLLARLGLRAGEIIEIELDDIHWRSGELVVHGKGQMVEHVPLSSEVGAAIATYLRDGRGASASRRVFLRRLAPRVGLAGPAAIGKIVCQAFARVGFRPACRGAAHLFRHGLATTMIRHGASMAEIAEVLRHRSPDSTAIYAKVAFEDLRGVARSWPTAGGAILEHHHHHH,soluble
20,MGMRLICLNGWGGKLHDKLVPYIASSDPDILCLQEVVHTPAATQDWLSYRDHGVELPQRANFFRDVAEALPDHVAIFCPAAQGDLWQGETRYPSQFGLATFVRKSIAIIAQAQGFVHGVFSADGYGNHPRSRTAHAIRVFDFTTGQPVVIAHMHGLRDLEGKHDIPARLHQAKRLVQFVKNIAEDGDRVIVCGDFNVLPDSRTFAVLNELDLVELVTTRGFTDTRTSHYAKPNRYADYLLVNPAVKVSQFDVVRQPEVSDHCPLLLEFSMAGDPLEHHHHHH,not soluble
21,MGMYFVGIDGGGTSCRARIKDSQGNFLGEAKSGSANIMLGAEIAMASILESITSAAEQGGLTQQDFASMHVGLALAGAEHKASWQAFMSLPHPFASMTLNTDAYGACVGAHNGEDGAIMIAGTGSCGIYLKGLEQHVVGGREFPISDQGGGAVMGLRLVQQVLLAEDGIREKTPLAQHVMAYFENDVDNVVAWSKQALPRDYGQFSPAIFQHAEQGDALAIEMLKQTAADIEMFLVALNKRGATRICLMGSIAERILRWLSPPVQQWVVEPQFDAIEGAIMFAGKPEHNLYSLSAALEHHHHHH,not soluble
